Among the data in patent US20230287143A1 (published 2023) are EC50 values, retold here.

The target of this assay is human PD-L1 (human, UniProt Q9NZQ7 19-290). The experiment in a line: FACS.
Sequence of human PD-L1 (Q9NZQ7 19-290): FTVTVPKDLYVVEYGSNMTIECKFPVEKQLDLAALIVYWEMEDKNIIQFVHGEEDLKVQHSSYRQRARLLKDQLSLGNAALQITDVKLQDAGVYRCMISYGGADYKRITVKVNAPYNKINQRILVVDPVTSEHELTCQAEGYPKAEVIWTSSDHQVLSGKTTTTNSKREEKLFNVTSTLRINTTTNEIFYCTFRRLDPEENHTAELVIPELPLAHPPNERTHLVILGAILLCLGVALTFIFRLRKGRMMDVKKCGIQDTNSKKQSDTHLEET

B1: PR004268, PD-L1×4-1BB bispecific binding protein with the VH-IgG structure (structure 4) (bispecific antibody)
light: DIQMTQSPSTLSASVGDRVTVTCRASQSIYIWLAWYQQKPGKAPNLLIYKASSLETGVPSRFSGSGSGTEFTLTISSLQPDDFATYYCQQYYGSSRTFGQGTKVEIKRTVAAPSVFIFPPSDEQLKSGTASVVCLLNNFYPREAKVQWKVDNALQSGNSQESVTEQDSKDSTYSLSSTLTLSKADYEKHKVYACEVTHQGLSSPVTKSFNRGEC
heavy: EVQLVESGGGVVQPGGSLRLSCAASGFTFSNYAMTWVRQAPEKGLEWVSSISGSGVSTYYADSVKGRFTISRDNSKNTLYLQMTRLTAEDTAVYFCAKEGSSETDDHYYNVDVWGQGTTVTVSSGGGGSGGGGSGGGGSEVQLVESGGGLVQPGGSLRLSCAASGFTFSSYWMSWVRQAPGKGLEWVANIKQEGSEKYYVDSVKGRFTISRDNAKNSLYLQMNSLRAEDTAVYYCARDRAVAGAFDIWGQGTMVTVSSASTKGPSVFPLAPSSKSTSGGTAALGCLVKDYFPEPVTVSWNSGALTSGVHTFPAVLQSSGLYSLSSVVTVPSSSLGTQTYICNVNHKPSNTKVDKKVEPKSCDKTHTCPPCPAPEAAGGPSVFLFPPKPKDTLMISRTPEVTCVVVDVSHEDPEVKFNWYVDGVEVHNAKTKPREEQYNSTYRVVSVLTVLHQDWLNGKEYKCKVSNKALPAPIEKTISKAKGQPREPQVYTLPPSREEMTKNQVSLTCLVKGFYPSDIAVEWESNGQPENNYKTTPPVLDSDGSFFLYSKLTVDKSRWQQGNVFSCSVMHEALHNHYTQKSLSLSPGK
B1 gave an EC50 of 1.2 nM.
